Experimental data as given in patent publication US12410234B2, “Compositions and methods for retrieving tumor-related antibodies and antigens” (THE TRUSTEES OF THE UNIVERSITY OF PENNSYLVANIA, priority 2018, dated 2025).

Columns and labels:
THP-1 tumors = assay: sCAR T plus Nb switch in THP-1 xenograft NSG mice; type: in vivo; details: with sCAR T cells
From the text: (§1) FIGS. 6A-6H are series of images and graphs depicting that Nb switch-activated CAR T cells eradicate AML in vivo in a controllable manner. FIGS. 6A-6B: Schematic diagram of switchable CAR T system. The Nb157 was expressed and purified by fusing with PNE, a fourteen amino acid peptide, either at N terminal or C terminal of the Nanobody. Primary human T cells were engineered by lentivirus transduction of scFv CAR that recognized PNE specifically. FIG. 6C: Test the affinity of Nb157, Nb157-N-PNE or Nb157-C-PNE against THP-1 cells by flow cytometry analysis. FIG. 6D: Killing assay of Nb157-PNE-mediated sCAR system against THP-1 cells in series of switch concentrations. The ratio of sCAR T to THP-1 was 2:1 and assay was performed after 16 hours incubation. FIG. 6E: 10 million THP-1 cells were transplanted into NSG mice subcutaneously to form the 150 mm^3 of tumors. […] The engraftment volumes were monitored by measuring the lengths and widths of the tumors. […] The primary leukemia or CAR T cells in the mouse peripheral blood were monitored by staining with CD33 or CD3 fluorescence labeled antibodies.
To determine whether the inducible switch, in concert with the sCAR T cells, can kill tumor in mice, THP-1 cells were transplanted into NSG mice subcutaneously to form tumors. […] It was determined whether resumption of the Nb157 switch injection suppress the tumor growth again. […]

[1] = system: patient-derived AML cells; assay: sCAR T plus Nb switch in patient-derived AML NSG mice; type: in vivo; details: sCAR T cells plus switch compared to sCAR T cell alone
From the text: as §1, with “concentrations.” for “concentrations. The ratio of sCAR T to THP-1 was 2:1 and assay was performed after 16 hours incubation. FIG. 6E: 10 million THP-1 cells were transplanted into NSG mice subcutaneously to form the 150 mm^3 of tumors.”
It was explored whether the switch CAR system can also suppress primary AML cells in mice. To this end, patient-derived AML cells were injected into the NSG mice to build leukemic mice model as determined by detection of the human CD33+ AML cells in the peripheral blood of the recipient mice (FIG. 6G). […] The appearance of CD33+ AML cells or CD3+ T cells in peripheral blood were monitored by flow cytometry analysis weekly.

THP-1 cells = assay: Killing assay of Nb157-PNE-mediated sCAR system; type: cell-based, human; details: sCAR T to THP-1 2:1, 16 hours
From the text: as §1
Killing assays were performed as previously described (Cao, L. F. et al. (2010) Cytometry A 77, 534-545). […] Quantification were calculated by either Countbright beads or volume.

NT-3 cells = assay: Flow analysis of VHH1 binding to NT-3 cells; set-up: species or system human
[2] = system: human pancreatic neuroendocrine tumor (PNET) samples; assay: Flow cytometry binding of VHH1 to human PNET biopsy samples; details: four fresh samples via biopsy from liver
mouse CDH17 = target: T1, mouse CDH17 (Mus musculus, UniProt Q9R100); assay: Flow cytometry of VHH1 phage on HEK293T cells transfected with mouse CDH17; type: binding; details: transiently transfected HEK293T
T1 construct: expressed in transfected cells; host or cells: HEK293T
T1 sequence (Q9R100 26-827): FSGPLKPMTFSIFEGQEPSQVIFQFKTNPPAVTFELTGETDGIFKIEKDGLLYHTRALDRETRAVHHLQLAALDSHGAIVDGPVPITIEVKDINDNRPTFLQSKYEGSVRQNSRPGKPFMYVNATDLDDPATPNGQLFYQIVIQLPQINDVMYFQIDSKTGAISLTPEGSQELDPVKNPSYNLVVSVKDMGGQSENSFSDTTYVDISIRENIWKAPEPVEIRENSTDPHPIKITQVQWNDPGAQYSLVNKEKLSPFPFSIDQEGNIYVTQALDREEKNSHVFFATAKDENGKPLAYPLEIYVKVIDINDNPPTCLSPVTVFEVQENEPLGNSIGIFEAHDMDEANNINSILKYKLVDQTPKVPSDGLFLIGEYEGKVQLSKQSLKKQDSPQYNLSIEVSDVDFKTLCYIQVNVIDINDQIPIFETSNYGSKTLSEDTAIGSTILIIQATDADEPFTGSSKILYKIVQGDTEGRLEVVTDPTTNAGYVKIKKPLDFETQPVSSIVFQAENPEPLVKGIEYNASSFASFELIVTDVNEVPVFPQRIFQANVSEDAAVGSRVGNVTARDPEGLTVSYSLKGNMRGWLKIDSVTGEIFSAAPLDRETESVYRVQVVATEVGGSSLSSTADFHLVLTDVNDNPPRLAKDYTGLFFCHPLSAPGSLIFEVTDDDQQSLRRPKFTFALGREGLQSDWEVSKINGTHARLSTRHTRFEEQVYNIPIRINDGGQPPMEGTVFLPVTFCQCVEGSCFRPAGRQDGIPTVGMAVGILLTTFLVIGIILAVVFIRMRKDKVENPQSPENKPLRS
From the text: (§2) FIGS. 12A-12D are a series of graphs and images depicting isolation of VHH1 from a llama-derived […] antibody phage display naive library by panning to BON cells, as described in FIG. 1A. VHH1 was isolated from phage library and specifically bound human neuroendocrine tumor (NET) BON cells in vitro, but not other tumor cells such as breast cancer cells or leukemia cells, by positive or negative pannings, as illustrated in FIG. 1. […] FIG. 12B depicts the antigen of VHH1 is CDH17 (through DNA sequencing individual phage clones that specifically bound BON cells), as identified by screening the transfected cells. Flow analysis of VHH1 binding to CDH17 overexpressed in 293 cells is shown.
(§3) Next, to identify the protein antigen of the isolated VHH1 nanobody, ˜3000 human cell membrane protein cDNAs were prepared and transfected into HEK293T cells individually, followed by flow cytometry analysis with the VHH1-expressing phage and FITC-labeled secondary antibody against phage M13 protein (FIG. 12A). […] Human or mouse CDH17 cDNA was transiently transfected into HEK293T cells, followed by flow cytometry analysis with the VHH1-expressing phage and FITC-labeled secondary antibody against phage M13 protein.

BT474 cells = assay: Flow cytometry binding of VHH1 to BT474 cells; set-up: species or system human
human full length CDH17 = target: T2, human full length CDH17 (Homo sapiens, UniProt Q12864); assay: Flow cytometry of VHH1 phage on HEK293T cells transfected with human CDH17; type: binding; details: screen of ~3000 cell surface proteins
T2 construct: expressed in transfected cells; host or cells: HEK293T
T2 sequence (Q12864 23-832): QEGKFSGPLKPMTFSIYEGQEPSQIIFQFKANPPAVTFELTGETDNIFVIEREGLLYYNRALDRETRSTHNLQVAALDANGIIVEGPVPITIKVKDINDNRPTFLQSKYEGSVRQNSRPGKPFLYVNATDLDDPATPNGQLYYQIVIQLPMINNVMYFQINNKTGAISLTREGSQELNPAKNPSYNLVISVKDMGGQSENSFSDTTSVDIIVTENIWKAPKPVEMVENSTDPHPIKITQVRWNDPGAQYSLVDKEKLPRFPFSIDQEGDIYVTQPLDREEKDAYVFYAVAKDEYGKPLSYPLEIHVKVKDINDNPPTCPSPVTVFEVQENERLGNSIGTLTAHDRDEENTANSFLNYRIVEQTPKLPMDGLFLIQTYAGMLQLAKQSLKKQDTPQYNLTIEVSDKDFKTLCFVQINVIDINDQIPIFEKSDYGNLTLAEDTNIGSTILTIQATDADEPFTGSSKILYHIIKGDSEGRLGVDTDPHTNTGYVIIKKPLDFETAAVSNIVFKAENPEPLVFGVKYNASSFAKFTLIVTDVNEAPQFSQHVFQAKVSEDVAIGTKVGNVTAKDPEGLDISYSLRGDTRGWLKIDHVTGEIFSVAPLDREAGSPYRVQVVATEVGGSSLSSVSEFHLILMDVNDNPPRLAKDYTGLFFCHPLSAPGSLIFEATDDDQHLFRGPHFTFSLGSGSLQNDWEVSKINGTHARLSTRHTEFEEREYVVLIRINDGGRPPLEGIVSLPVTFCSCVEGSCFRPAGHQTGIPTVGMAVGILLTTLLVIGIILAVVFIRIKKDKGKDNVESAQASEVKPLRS
From the text: as §2, §3

EC1 domain of CDH17 [3] = target: T3, EC1 domain of CDH17 (Homo sapiens, UniProt Q12864); assay: Flow analysis of VHH1 on CDH17 truncations in HEK293T cells; type: binding
T3 construct: expressed in transfected cells; host or cells: HEK293T
T3 sequence (Q12864 23-832): T2 sequence (Q12864 23-832)
From the text: (§4) FIGS. 22A-22C are series of images and graphs depicting that the VHH1 binds to the EC1 domain of CDH17. FIG. 22A is a schema showing human CDH17 truncations. […] FIG. 22C is a schematic diagram of CDH17 structure showing VHH1 binds to the N-terminal EC1 domain of CDH17.
(§5) In order to further confirm the antigen of VHH1 is CDH17, several CDH17 internal truncations were constructed. The truncations were transfected into HEK293T cells. […] Additionally, several CDH17 internal truncations were constructed (FIG. 22A) and transfected into HEK293T cells. Flow cytometry analysis was performed with the purified VHH1 nanobody and APC labeled anti-HA secondary antibody against HA on VHH1 nanobody. […] CDH17, a cell adhesion protein highly expressed in human NETs. CDH17 is a cell adhesion protein highly expressed in human NETs. […] One nanobody, named VHH1 was identified that specifically binds to CDH17 protein. […] VHH1 was sequenced and confirmed to contain the conserved VHH sequence (FIG. 14).

EC1 domain of CDH17 [4] = assay: as above; type: binding, human
From the text: as §4, §5

BON cells [5] = assay: Flow cytometry binding of VHH1 to BON cells; set-up: species or system human
BON cells [6] = assay: In vitro killing of BON cells by ADC (MTT assay)
BON cells [7] = assay: Flow cytometry binding of VLV or VLV-DM1 to BON cells; set-up: species or system human
Experimental: (§6) Scale bar: […]. […] Scale bar: […].

QGP1 cells = assay: Flow cytometry binding of VLV or VLV-DM1 to QGP1 cells
Experimental: as §6

[8] = system: CDH17-negative QGP1 cells; assay: In vitro killing of QGP1 cells by ADC (MTT assay); type: cell-based; details: cytotoxicity assay
Experimental: as §6

B1: Nb157-C-PNE: Nb157 with C-terminal PNE, a fourteen amino acid peptide; inducible nanobody switch (protein)
chain: AAQAAQVQLQESGGGLVQPGGSLSLSCTASGFTFSSYSMAWVRQAPGKGPEWVSGIYPSDGKTRYADFVKGRFSISRDNAKNMLYLQMNNLEPEDTALYYCARGITGLGPRGQGTQVTVSSAA
modifications: left off: small tags and cut ends
notes: Nb157 with C-terminal PNE, a fourteen amino acid peptide; inducible nanobody switch
tumor growth, THP-1 xenograft (THP-1 tumors; first five times of switch injection): significantly slowed down growth | tumor size (THP-1 tumors; switch restarted from day 21, day 52): almost undetectable | survival (Kaplan Maier) [1]: significantly protected the leukemic mice from dying | switch-triggered killing of THP-1 cells by sCAR T cells (THP-1 cells): potently triggered the killing of THP-1 cells by the sCAR T cells

B2: VHH1: llama nanobody binding the EC1 domain of CDH17, SEQ ID NO: 2 (protein)
VHH: QVQLQESGGGLVQPGGSTRLSCVSSRTFSYYDMGWFRQAPGKEREFVALLSWNGENAEYSDSVMGRFTVSRGNTQNSVNLQMNNLKPEDTGIYYCAVTHGGARSVRSWGQGTQVTVSS
modifications: VHH1 nanobody
binding to NT-3 cells (NT-3 cells): robustly bound by VHH1 | binding to human PNET samples [2]: robustly bound by VHH1 | binding to mouse CDH17 (mouse CDH17): bound both human and mouse CDH17 | binding to BT474 cells (BT474 cells): cannot be bound by VHH1 | binding to human CDH17 (human full length CDH17): only bound to human full length CDH17 | binding domain on CDH17 (EC1 domain of CDH17 [3]): binds to the EC1 domain at the N-terminal part of CDH17 | binding to EC1 domain deleted truncation Del-1 (EC1 domain of CDH17 [4]): completely lost the function to interact with VHH1 nanobody | binding to BON cells (BON cells [5]): can be bound by VHH1

B3: VLV-DM1 (conjugate)
VHH 1: B2 VHH
VHH 2: B2 VHH
modifications: left off: things letters cannot carry; small tags and cut ends
lysis of BON cells (morphology) (BON cells [6]; at 4 nM, microscopic observation): lysed the BON cells | killing of BON cells (BON cells [6]; cytotoxicity assay): significantly killed BON cells | binding to BON cells (BON cells [7]): bound to BON cells, albeit with slightly reduced affinity | binding to QGP1 cells (QGP1 cells): but not QGP1 cells | killing of QGP1 cells [8]: but not CDH17-negative QGP1 cells
